B1: mRNA-splicing (parent)
chain: AGUUGCUGCUGGGAGCUCCAGCACAGUGAAAUGGACAGAAGGGCAGAGCAA

Variants of: B1
Test: exon inclusion enrichment index; higher = more inclusion; WT1 exon 5 minigene, HEK293

Row | Variant | exon inclusion enrichment index
1 | AGUUAGGGAUGGGAGCUCCAGCACAGUGAAAUGGACACGAGGGCAGAGCAA | 0.00244
2 | AGUUAGGGAUGGGAGCUCCAGCACAGUGAAAUGGACAGAACUGCAGAGCAA | 0.0271
3 | AGUUAGGGAUGGGAGCUCCAGCACAGUGAAAUGGACAGAACAGCAGAGCAA | 0.00376
4 | AGUUAGGGAUGGGAGCUCCAGCACAGUGAAAUGGACAGAACCGCAGAGCAA | 0.0196
5 | AGUUAGGGAUGGGAGCUCCAGCACAGUGAAAUGGACAAUAGGGCAGAGCAA | 0.00074
6 | AGUUAGGGAUGGGAGCUCCAGCACAGUGAAAUGGACAAGAGGGCAGAGCAA | 0.000899
7 | AGUUAGGGAUGGGAGCUCCAGCACAGUGAAAUGGACAACAGGGCAGAGCAA | 0.0024
8 | AGUUAGGGAUGGGAGCUCCAGCACAGUGAAAUAGACAGAAGGGCAGAGCAA | 0.000879
9 | AGUUAGGGAUGGGAGCUCCAGCACAGUGAAAUUGACAGAAGGGCAGAGCAA | 0.000815
10 | AGUUAGGGAUGGGAGCUCCAGCACAGUGAAAUCGACAGAAGGGCAGAGCAA | 0.00196
11 | AGUUAGGGAUGGGAGCUCCAGCACAGUGAAAUGGACAGAAUAGCAGAGCAA | 0.000614
12 | AGUUAGGGAUGGGAGCUCCAGCACAGUGAAAUGGACAGAAUUGCAGAGCAA | 0.00223
13 | AGUUAGGGAUGGGAGCUCCAGCACAGUGAAAUGGACAGAAUCGCAGAGCAA | 0.00698
14 | AGUUAGGGAUGGGAGCUCCAGCACAGUGAAAUCUACAGAAGGGCAGAGCAA | 0.00222
15 | AGUUAGGGAUGGGAGCUCCAGCACAGUGAAAUCAACAGAAGGGCAGAGCAA | 0.000739
16 | AGUUAGGGAUGGGAGCUCCAGCACAGUGAAAUCCACAGAAGGGCAGAGCAA | 0.0007
17 | AGUUAGGGAUGGGAGCUCCACGACAGUGAAAUGGACAGAAGGGCAGAGCAA | 0.00387
18 | AGUUAGGGAUGGGAGCUCCACAACAGUGAAAUGGACAGAAGGGCAGAGCAA | 0.00656
19 | AGUUAGGGAUGGGAGCUCCACUACAGUGAAAUGGACAGAAGGGCAGAGCAA | 0.00338
20 | AGUUAGGGAUGGGAGCUCCAGCACAGUGAAAUGGACAUAAGGGCAGAGCAA | 0.000717
21 | AGUUAGGGAUGGGAGCUCCAGCACAGUGAAAUGGACACAAGGGCAGAGCAA | 0.000603
22 | AGUUAGGGAUGGGAGCUCCAGCACAGUGAAAUGGACAAAAGGGCAGAGCAA | 0.000584
23 | AGUUAGGGAUGGGAGCUCCAGCACAGUGAAAUGGACAGAAGACCAGAGCAA | 0.0943
24 | AGUUAGGGAUGGGAGCUCCAGCACAGUGAAAUGGACAGAAGAACAGAGCAA | 0.0419
25 | AGUUAGGGAUGGGAGCUCCAGCACAGUGAAAUGGACAGAAGAUCAGAGCAA | 0.0457
26 | AGUUAGGGAUGGGAGCUCCAGCACAAAGAAAUGGACAGAAGGGCAGAGCAA | 0.00661

Row | Variant | exon inclusion enrichment index
27 | AGUUAGGGAUGGGAGCUCCAGCACAACGAAAUGGACAGAAGGGCAGAGCAA | 0.0139
28 | AGUUAGGGAUGGGAGCUCCAGCACAAGGAAAUGGACAGAAGGGCAGAGCAA | 0.00208
29 | AGUUAGGGAUGGGAGCUCCAGCACAGUGAAAUGGACAGAACGGCAGAGCAA | 0.013
30 | AGUUAGGGAUGGGAGCUCCAGCACAGUGAAAUGGACAGAAUGGCAGAGCAA | 0.000489
31 | AGUUAGGGAUGGGAGCUCCAGCACAGUGAAAUGGACAGAAAGGCAGAGCAA | 0.0013
32 | AGUUAGGGAUGGGAGCUCCAGCACAGUGAAAUGUUCAGAAGGGCAGAGCAA | 0.00101
33 | AGUUAGGGAUGGGAGCUCCAGCACAGUGAAAUGUGCAGAAGGGCAGAGCAA | 0.00131
34 | AGUUAGGGAUGGGAGCUCCAGCACAGUGAAAUGUCCAGAAGGGCAGAGCAA | 0.000948
35 | AGUUAGGGAUGGGAGCUCCAAGACAGUGAAAUGGACAGAAGGGCAGAGCAA | 0.00502
36 | AGUUAGGGAUGGGAGCUCCAAAACAGUGAAAUGGACAGAAGGGCAGAGCAA | 0.000944
37 | AGUUAGGGAUGGGAGCUCCAAUACAGUGAAAUGGACAGAAGGGCAGAGCAA | 0.00087
38 | AGUUAGGGAUGGGAGCUCCAUCACAGUGAAAUGGACAGAAGGGCAGAGCAA | 0.00149
39 | AGUUAGGGAUGGGAGCUCCACCACAGUGAAAUGGACAGAAGGGCAGAGCAA | 0.00079
40 | AGUUAGGGAUGGGAGCUCCAACACAGUGAAAUGGACAGAAGGGCAGAGCAA | 0.00299
41 | AGUUAGGGAUGGGAGCUCCAGCACAGUAAAAUGGACAGAAGGGCAGAGCAA | 0.000725
42 | AGUUAGGGAUGGGAGCUCCAGCACAGUUAAAUGGACAGAAGGGCAGAGCAA | 0.000687
43 | AGUUAGGGAUGGGAGCUCCAGCACAGUCAAAUGGACAGAAGGGCAGAGCAA | 0.00255
44 | AGUUAGGGAUGGGAGCUCCAGCACAGUCCAAUGGACAGAAGGGCAGAGCAA | 0.00678
45 | AGUUAGGGAUGGGAGCUCCAGCACAGUCGAAUGGACAGAAGGGCAGAGCAA | 0.0115
46 | AGUUAGGGAUGGGAGCUCCAGCACAGUCUAAUGGACAGAAGGGCAGAGCAA | 0.00174
47 | AGUUAGGGAUGGGAGCUCCAGCACAGUGAAAUGAUCAGAAGGGCAGAGCAA | 0.00125
48 | AGUUAGGGAUGGGAGCUCCAGCACAGUGAAAUGAGCAGAAGGGCAGAGCAA | 0.00114
49 | AGUUAGGGAUGGGAGCUCCAGCACAGUGAAAUGACCAGAAGGGCAGAGCAA | 0.00134
50 | AGUUAGGGAUGGGAGCUCCAGCACAGUGAAAUGGACAGAAGGCCAGAGCAA | 0.00197
51 | AGUUAGGGAUGGGAGCUCCAGCACAGUGAAAUGGACAGAAGGACAGAGCAA | 0.00629

From the RNAGym collection of RNA variant scans (doi:10.1101/gr.219683.116)
